This is an account of results in patent US20130203167A1 (SYRACUSE UNIVERSITY, published 2013).

The target in this test is full-length WDR5 (UniProt P61964 2-334). Kind of test: method not stated; ITC with full-length WDR5 by the Methods.

A word on the Kd: it is the constant that tells how readily two partners part at equilibrium. Low readings indicate tighter binding, high ones weaker binding. In turn, Ac-INPTGCARSEPKIL-NH2 [Win motif peptide INPTGCARSEPKIL (SEQ ID NO. 29)] came in with a dissociation constant (Kd) of 78 nM.
The result for Ac-LNPHGAARAEVYLR-NH2 [Win motif peptide LNPHGAARAEVYLR (SEQ ID NO. 31)] reads 52 nM.
With Ac-EHQTGSARSEGYYP-NH2 [Win motif peptide EHQTGSARSEGYYP (SEQ ID NO. 32)], the equilibrium dissociation constant (Kd) amounted to 415 nM.
The result for Ac-VNPTGCARSEPKMS-NH2 [Win motif peptide VNPTGCARSEPKMS (SEQ ID NO. 30)] reads 47 nM; that for Ac-EHVTGCARSEGFYT-NH2 [Win motif peptide EHVTGCARSEGFYT (SEQ ID NO. 33)], 116 nM.
